In publication PMC12450465, “Oligomerization and exocyst coupling underlie Spa2-mediated focusing of polarized growth in fission yeast” (Journal of Cell Science, 2025):

B1: FLAG–Spa2(200–360) (domain or fragment, S. pombe, UniProt O42869 200-360, looked up)
chain: NTVQANNSSTSSLSQGAQTGIDSSSNYLSRIEMLESSLAKSNSLLDSSKSEMEALKAKSISDATKHKNEIFQLEEKLHEASHEAEISIKKLNDAENRIKELENNPTLSFNPELEKNLKLMQELIVAESSKTQHIVELESCIDSLKAETERWKKVAINAKSA
notes: also called Spa2(200–360)–FLAG
B2: His6–Pos1 (natural protein, S. pombe, UniProt O13743 1-269, looked up)
chain: MAFSPANSFLINKSICESKEVEPLEANLFGKLHNKLLICKAKKENLEKKLAYQMMYSKLLKSLPKLSSLEENKLTKLKAPIEDMENTKKELEEIRKQSTETELRYLKSLSNTLSFGTLSLSNEINKVGPSASFMLKEVHDSVQVLEQRLEKMGLIEKPSESSESSIYSILASLKHTNDSLQKKELSPHEIAESPSSHSTSPMGRNVDTETLSFLLIDWQRLCAEQNTFLRDITNNMSSSVPQDVLSQLRQFFFRSELLSDKLSNLCSES
notes: Pos1, S. pombe; also called His6-tagged Pos1; source: Rosetta2(DE3)pLysS bacteria (pETDuet); alone: purified on nickel magnetic beads; not shown: His6, N-terminal, kept

Legend:
[1] = target: B2; experiment: SEC; Superose 6 10/300 GL, 0.5 ml/min, 4°C, 10 mM Tris-HCl pH 7.5, 150 mM NaCl, 0.5 mM EDTA; each protein alone or the co-purified complex; sizes estimated from calibration standards; conditions: both partners purified
[2] = target: B1; experiment: pull-down; co-purification: His6–Pos1 and FLAG–Spa2(200–360) co-produced in bacteria with a dual expression system, purified on DYKDDDDK Fab-Trap agarose, eluted with 3×FLAG peptide; SDS-PAGE, Coomassie Blue; conditions: partners not purified
[3] = target: T1, MBP–Pos1 (S. pombe, UniProt O13743 1-269); experiment: pull-down; GST proteins left on beads, incubated with eluted MBP proteins in GST buffer for 40 min at 4°C; washed three times; SDS-PAGE, Coomassie Blue; conditions: both partners purified
T1 construct: Pos1, S. pombe; source: Rosetta2(DE3)pLysS bacteria, purified on amylose beads, eluted with 10 mM maltose; not shown: MBP, N-terminal, kept
T1 sequence (looked up): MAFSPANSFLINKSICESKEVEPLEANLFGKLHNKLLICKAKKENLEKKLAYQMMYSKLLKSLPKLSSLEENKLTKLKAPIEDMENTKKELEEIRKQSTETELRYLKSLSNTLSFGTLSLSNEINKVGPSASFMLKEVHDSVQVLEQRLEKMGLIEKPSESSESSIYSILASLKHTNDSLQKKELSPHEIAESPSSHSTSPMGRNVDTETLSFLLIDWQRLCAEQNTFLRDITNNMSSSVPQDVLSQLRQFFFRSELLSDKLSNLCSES

B1
binding result [1]: binds

B2
stoichiometry N [2]: ~1

B3: GST–Spa2(305–360) (domain or fragment, S. pombe, UniProt O42869 305-360, looked up)
chain: TLSFNPELEKNLKLMQELIVAESSKTQHIVELESCIDSLKAETERWKKVAINAKSA
notes: not shown: GST, N-terminal, kept
binding result [3]: binds
